{"source": "patent US9623039B2", "about": "“Treatment and prevention of pathological conditions using iduna related techniques and compositions” (VALTED, LLC, priority 2010, dated 2017)", "molecules": {"B1": {"name": "Iduna: novel NMDA-induced cell survival protein, PAR-dependent E3 ligase; 359 amino acids (protein)", "chain": "MEMAGCGEIDHSINMLPTNKKANESCSNTAPSLTVPECAICLQTCVHPVSLPCKHVFCYLCVKGASWLGKRCALCRQEIPEDFLDKPTLLSPEELKAASRGNGEYAWYYEGRNGWWQYDERTSRELEDAFSKGKKNTEMLIAGFLYVADLENMVQYRRNEHGRRRKIKRDIIDIPKKGVAGLRLDCDTNTVNLARESSADGADSGSAQTGASVQLAVPSSTRPLTSVDGQLTSPVTPSPDAGISLEDSFAHLQLSGDSIAERSHRGEGEEDHESPSSGRVPDTSVEETESDASSDSEDAPVVVAQHSLTQQRPLVPNGNQTVADQSDRSGTDRSVAGGGTMSVNVRSRRPDGQCTVIEV"}}, "key": {"PARP-1": {"test_system": "PARP-1", "test": "PARP inhibition assay (32P-NAD incorporation into PAR polymer)", "type": "biochemical", "details": "32P-NAD incorporation into radiolabeled PAR polymer", "protocol": "Because PARP-1 activation plays a prominent role in NMDA excitotoxicity we tested whether PARP-1 activity is directly affected by Iduna. PARP-1 activity was assessed by incorporation of biotinylated PAR onto histone proteins.\nPARP Inhibition Assay: To evaluate the ability of Iduna to act as a PARP inhibitor, [^32P]-labeled automodified PARP-1 was synthesized in presence of GST, GST-Iduna or PARG, respectively. To purify the [^32P]-labeled automodified PARP-1, the reaction mixture was incubated with anti-PAR antibody for 4 h at 4° C. and then sequentially incubated with protein-G slurry for 1 h at 4° C. Samples were washed two times with PBS and the amount of [^32P]-labeled automodified PARP-1 was measured by LS 6500 Liquid Scintillation Counting System."}, "primary cortical neurons": {"test_system": "primary cortical neurons", "test": "NMDA excitotoxicity cell death in primary cortical neurons", "type": "cell-based, mouse", "details": "NMDA 100 μM for 5 min, Iduna overexpression", "protocol": "(§1) Primary Neuronal Culture Preparation: Primary cortical cell cultures were prepared from gestational day 15 mouse embryos as previously described. Experiments were performed at DIV (day in vitro) 14. Under these conditions, neurons represent 90% of the cells in the culture. Mature neurons were washed with control salt solution (CSS) containing 120 mM NaCl, 5.4 mM KCl, 1.8 mM CaCl2, 25 mM Tris-HCl pH 7.4 and 15 mM D-glucose. To induce NMDA-mediated […], 50 μM NMDA and 10 μM glycine in CSS solution was applied to the cells for 5 min, then the cells were washed and re-supplemented with minimum essential medium containing 10% horse serum. […]\n(§2) Cell Death Assessment: Following exposure of neuronal cultures to the various treatments neuronal survival was quantified and presented as percent of cell death. Percent cell death was determined as the ratio of live-to-dead cells compared with the percent cell death in control wells to account for cell death attributable to mechanical stimulation of the cultures. Quantification of neuronal survival was determined by staining treated cultures with 5 μM Hoechst 33342 and 2 μM propidium iodide (PI) (Invitrogen, Carlsbad, Calif.). […] The numbers of total and dead (PI positive) cells were counted by automated computer assisted software (Axiovision 4.6, Zeiss, Germany). […]"}, "cortical neurons": {"test_system": "cortical neurons", "test": "MNNG-induced cell death in cortical neurons", "type": "cell-based, mouse", "details": "MNNG 50 μM for 15 min", "protocol": "as §1, §2"}, "primary neurons": {"test_system": "primary neurons", "test": "H2O2-induced cell death in primary neurons", "type": "cell-based, mouse", "details": "100 μM H2O2", "protocol": "FIGS. 44 and 45—Iduna protects against peroxide-induced cell death in primary neurons. Primary neuronal cultures were transduced with lentiviruses expressing GFP, GFP-Iduna or GFP-Iduna-YRAA. 4 days following lentiviral transduction, cultures were treated with H2O2 (100 μM or 500 μM) and cell death assessed 24 h later using PI and Hoechst staining.\nCell Death Assessment: Following exposure of neuronal cultures to the various treatments neuronal survival was quantified and presented as percent of cell death. Percent cell death was determined as the ratio of live-to-dead cells compared with the percent cell death in control wells to account for cell death attributable to mechanical stimulation of the cultures. Quantification of neuronal survival was determined by staining treated cultures with 5 μM Hoechst 33342 and 2 μM propidium iodide (PI) (Invitrogen, Carlsbad, Calif.). Culture plates were placed on a mechanized stage of a Zeiss microscope and photomicrographs were collected by a blinded observer. The numbers of total and dead (PI positive) cells were counted by automated computer assisted software (Axiovision 4.6, Zeiss, Germany). The raw counts are presented in an Excel file for generation of percent cell death and statistical analysis. Glial nuclei fluoresce at a lower intensity than neuronal nuclei and were gated out by the software program. […]"}, "[1]": {"test": "Middle cerebral artery occlusion", "type": "in vivo, mouse", "protocol": "Middle Cerebral Artery Occlusion (MCAD): To occlude the middle cerebral artery, mice were anesthetized with 1.5-2% isoflurane and maintained at normothermic temperature. A 7-0 monofilament with an enlarged silicone tip was passed through the right internal carotid artery to the base of the middle cerebral artery. Occlusion was confirmed by laser-Doppler flowmetry with a probe placed on thinned skull over the lateral parietal cortex. After 60 min of occlusion, the filament was removed and reperfusion was verified. At 24 h of reperfusion, the brain was harvested, sectioned into five coronal slabs, and stained with the vital dye, triphenyltetrazolium chloride. Infarct area was measured on the anterior and posterior surfaces of each slab and integrated to obtain infarct volume with correction for tissue swelling. The investigator performing the surgery and analyzing infarct size was unaware of the genotype of the mouse.\nNeurobehavioural Activity: Spontaneous motor activity was evaluated for 5 min by placing the animals in a mouse cage for 5 minutes. […] Neurological deficits were evaluated by an observer blinded to the treatment and genotype of the animals with a scale of 0-4 (0 no neurological deficit, 4 severe neurological deficit). […] Recordings were evaluated by an observer blinded to the treatment and genotype of the animals. […]"}}}
{"molecule": "B1", "values": [{"measurement": "PARP-1 catalytic activity", "setting": "PARP-1", "value": "fails to inhibit PARP-1 catalytic activity"}, {"measurement": "cell death %", "setting": "primary cortical neurons", "value": "23.0±1.8", "unit": "%"}, {"measurement": "protection against MNNG-induced cell death", "setting": "cortical neurons", "value": "protects neuronal cultures against MNNG-induced cell death"}, {"measurement": "protection against H2O2 toxicity", "setting": "primary neurons", "value": "protects only against 100 μM H2O2"}, {"measurement": "reduction of infarct volume", "setting": "[1]; Iduna transgenic mice vs wild type, 60 min occlusion", "value": 50, "unit": "%"}, {"measurement": "neurological function following stroke", "setting": "[1]; Iduna-Tg mice vs WT", "value": "improved neurological function"}]}
